Key:
[1] = molecular target: T1, human ICOS expressed on the surface of cells (human, UniProt Q9Y6W8 21-199); experiment: flow cytometry, CHO-S cells expressing ICOS, purified IgG1
T1 construct: also called hICOS; Human ICOS CHO
T1 sequence: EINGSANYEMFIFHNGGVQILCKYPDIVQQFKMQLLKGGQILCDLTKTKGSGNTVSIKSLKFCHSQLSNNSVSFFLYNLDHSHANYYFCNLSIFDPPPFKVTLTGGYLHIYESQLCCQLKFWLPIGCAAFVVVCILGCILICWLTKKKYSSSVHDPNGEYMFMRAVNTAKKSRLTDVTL

[2] = molecular target: T2, mouse ICOS expressed on the surface of CHO-S cells (mouse, UniProt Q9WVS0 21-141); experiment: as above
T2 construct: The construct expressed in CHO-S cells is not specified; also called mICOS; Mouse ICOS CHO
T2 sequence: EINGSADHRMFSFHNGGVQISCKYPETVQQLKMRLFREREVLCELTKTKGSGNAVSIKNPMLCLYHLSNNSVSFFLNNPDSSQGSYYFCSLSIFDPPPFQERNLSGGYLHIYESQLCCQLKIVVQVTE

[3] = molecular target: T1, human ICOS expressed on the surface of …; experiment: Receptor occupancy by chip cytometry on ICOS+ CD4 memory cells (ICOS+CD3+CD4+FoxP3-CD45RA-) from blood of patients dosed with KY1044 every 3 weeks; samples at C1D1, C1D8, C2D1 and C2D8

B1: CL-61091 (antibody, human IgG1, V domains shown)
VH: QVQLMQSGTEVKKPGASVKVSCKTSGYTFTTYGITWVRQAPGQGLEWMGWISAYSGDTDYAQKFQGRVTVTTDTSTNTAYMELRSLKSDDTAVYYCARSSGWPHHYGMDVWGQGTTVTVSS
VL: DIVMTQSPLSLPVTPGEPASISCRSSQSLLHSNGFNYFDWYLQKPGQSPQLLIFLVSNRASGVPDRFSGSGSGTDFTLKISRVEAEDVGIYYCMQALQTPLTFGGGTKVEIK
fold above the average of geomean of the negative control [1]: > 10 fold
fold above the average of geomean of the negative control [2]: > 10 fold

B2: KY1044 (antibody, human IgG1, kappa, V domains shown)
VH: EVQLVESGGGVVRPGGSLRLSCVASGVTFDDYGMSWVRQAPGKGLEWVSGINWNGGDTDYSDSVKGRFTISRDNAKNSLYLQMNSLRAEDTALYYCARDFYGSGSYYHVPFDYWGQGILVTVSS
VL: EIVLTQSPGTLSLSPGERATLSCRASQSVSRSYLAWYQQKRGQAPRLLIYGASSRATGIPDRFSGDGSGTDFTLSISRLEPEDFAVYYCHQYDMSPFTFGPGTKVDIKR
notes: also called STIM003; SAR445256
binding result [3]: binds

B3: CL-74570 (antibody, human IgG1, V domains shown)
VH: EVQLVESGGGVIRPGGSLRLSCAASGFTFDDYGMSWVRQAPGKGLEWVSGINWIGDNTDYADSVKGRFTISRDNAKNSLYLQMNSLRAEDTALYYCARDYFGSGSYYNVPF
VL: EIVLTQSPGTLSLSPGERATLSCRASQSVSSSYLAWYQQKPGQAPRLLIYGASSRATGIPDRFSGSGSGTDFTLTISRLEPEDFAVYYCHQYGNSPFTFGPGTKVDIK
fold above the average of geomean of the negative control [1]: > 10 fold
fold above the average of geomean of the negative control [2]: > 10 fold

Reference: patent publication US20260184791A1 (KYMAB, published 2026)
